Laboratory results as given in US20130287781A1 (GlaxoSmithKline, published 2013).
Where no end group is shown, it is not given here. The star is where a group is joined. Biotin = O=C1N[C@H]2[C@H](CS[C@H]2CCCCC(=O)*)N1

Experiments:
GST-human NOGO-A56 [1] = target: T1, GST-human NOGO-A56 (human); assay: SPR (Biacore) off-rate ranking on GST-human NOGO-A56 chip, one experiment
T1 construct: Expressed in E. coli BL21 from pGEX-6P1 and purified on glutathione-sepharose; the GST tag is part of the protein in the assays; also called GST-Nogo-A 5+6; GST Nogo-A 5 + 6
Protocol: (§1) GST-human NOGO-A56 was immobilised to a CM5 chip by primary amine coupling using the Biacore Wizard program designed for targeted immobilisation levels. The CM5 sensor surface was activated by passing a solution of 50 mM N-hydroxy-succinimide (NHS) and 200 mM N-ethyl-N′-dimethylaminopropyl carbonide (EDC). Then GST-human NOGO-A56 in sodium acetate buffer, pH5.0 or pH 4.5, was passed over the chip and immobilised. After immobilisation was complete any still activated esters were blocked by an injection of 1M ethanolamine hydrochloride, pH8.5.
The GST-human NOGO-A56 chip was prepared as for kinetic analysis. Cell supernatants where taken directly from transient transfections of CHO-K1 cells. These were passed directly over the sensor surface and the interaction measured. A mock transfected cell supernatant was used for double referencing to remove any artefacts due to the tissue culture media. All runs were referenced against a blanked sensor surface (one that had been activated and blocked as described earlier but had no addition of ligand). Analysis of binding was carried out using the BIAevaluation kinetic analysis software version 4.1.

H28L16 = target: T2, H28L16; assay: competition ELISA: H28L16 captured on anti-human IgG, peptide pre-mixed with GST-human NOGO-A56 (1 ug/ml), bound NOGO detected with anti-GST-HRP
T2 construct: IgG1 (L235A, G237A) / kappa; CAMPATH-1H signal (1-19) left out; also called H28FL L16FL; NOGO H28L16
Protocol: The plates were rinsed 3 times with TBS containing 0.05% Tween (TBST) then blocked with 1% BSA in TBST at room temperature for 1 hour. […] The plates were washed 3 times with TBST. Peptides (from 0 to 100 g/ml) and GST-human NOGO-A56 at a concentration of 1 ug/ml (diluted in 1% BSA in TBST) were pre-mixed prior to addition into the wells and incubated at room temperature for 1 hour. The plates were washed 3 times with TBST then incubated for 1 hour with rabbit anti-GST peroxidase conjugate (Sigma, #A7340, 1:2000, diluted in 1% BSA in TBST) for 1 hour. The plates were washed 3 times with TBST and then incubated with 50 l OPD peroxidase substrate (Sigma) per well for 10 minutes. The colour reaction was stopped by the addition of 25 l concentrated H₂SO₄. Absorbance at 490 nm was measured using a plate reader.

GST-human NOGO-A56 [2] = target: T1, GST-human NOGO-A56; assay: direct ELISA, GST-human NOGO-A56 coated at 1.0 mcg/ml, purified antibody, OD490
GST-human NOGO-A56 [3] = target: T1, GST-human NOGO-A56; assay: SPR (Biacore), NOGO amine-coupled to CM5, antibody flowed over
Protocol: as §1

GST-human NOGO-A56 [4] = target: T1, GST-human NOGO-A56; assay: SPR (Biacore), GST-human NOGO-A56 amine-coupled to CM5, antibody flowed over, 25 C
Protocol: as §1
(§2) The anti-NOGO mAbs were diluted down in HBS-EP (10 mM HEPES, pH 7.4, 150 mM NaCl, 3 mM EDTA, and 0.005% P-20 surfactant) for the BIAcore 3000 or HBS-EP+ (10 mM HEPES, pH 7.4, 150 mM NaCl, 3 mM EDTA, and 0.05% P-20 surfactant) in the case of the T100 and binding studies were carried out at range of defined antibody concentrations. All runs were referenced against a blanked sensor surface (one that had been activated and blocked as described earlier but had no addition of ligand). Analysis of binding was carried out using the BIAevaluation kinetic analysis software version 4.1 for the BIAcore 3000 and T100 kinetic analysis software version 1.0. […] Unless otherwise stated, the BIAcore experiments were performed at 25° C.

GST-human NOGO-A56 [5] = target: T1, GST-human NOGO-A56; assay: as above; remark: listed apart in the source
Protocol: as §1, §2

GST-human NOGO-A56 [6] = target: T1, GST-human NOGO-A56; assay: SPR (Biacore), GST-human NOGO-A56 amine-coupled to CM5, antibody flowed over, 37 C
Protocol: as §1, §2

GST-human NOGO-A56 [7] = target: T1, GST-human NOGO-A56; assay: SPR (Biacore), GST-human NOGO-A56 amine-coupled to CM5, antibody flowed over, 25 C; remark: listed apart in the source
Protocol: as §1, §2

GST-human NOGO-A56 [8] = target: T1, GST-human NOGO-A56; assay: SPR (Biacore) off-rate on NOGO chip, panel of H6FL CDR H3 variants with L13FL

T1 sequence (chain, as listed by the source limits assumed): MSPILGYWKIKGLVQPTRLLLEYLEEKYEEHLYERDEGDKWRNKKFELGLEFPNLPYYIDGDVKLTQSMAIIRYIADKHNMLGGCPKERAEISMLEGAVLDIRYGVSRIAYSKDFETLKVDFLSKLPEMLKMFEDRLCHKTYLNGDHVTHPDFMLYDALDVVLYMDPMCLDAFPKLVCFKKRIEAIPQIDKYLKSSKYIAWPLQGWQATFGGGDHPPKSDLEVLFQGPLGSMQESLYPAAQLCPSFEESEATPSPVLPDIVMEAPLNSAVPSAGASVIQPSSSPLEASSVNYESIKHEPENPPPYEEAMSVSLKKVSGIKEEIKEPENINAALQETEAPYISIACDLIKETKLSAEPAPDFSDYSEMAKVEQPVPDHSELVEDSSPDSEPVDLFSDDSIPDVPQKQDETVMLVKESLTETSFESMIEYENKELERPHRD
T2 sequence (light, as listed by the source): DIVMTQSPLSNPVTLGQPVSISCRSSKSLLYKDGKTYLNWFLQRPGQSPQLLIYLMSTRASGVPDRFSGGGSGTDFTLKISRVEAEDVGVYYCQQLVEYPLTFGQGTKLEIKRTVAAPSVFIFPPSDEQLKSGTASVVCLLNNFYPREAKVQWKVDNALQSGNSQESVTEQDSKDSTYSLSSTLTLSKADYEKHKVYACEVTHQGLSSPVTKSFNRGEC

B1: Hc(G95M)Lc (antibody, human IgG1, kappa, V domains shown)
VH: QVQLQQPGTELVKPGASVKLSCKASGYTFTSYWMHWVKQRPGQGLEWIGNINPSNGGTNYNEKFKSKATLTVDKSSSTAYMQLSSLTSEDSAVYYCELMQGYWGQGTLVTVSS
VL: DIVITQDELSNPVTSGESVSISCRSSKSLLYKDGKTYLNWFLQRPGQSPQLLIYLMSTRASGVSDRFSGSGSGTDFTLEISRVKAEDVGVYYCQQLVEYPLTFGAGTKLELKR
notes: also called HcLc containing the G95M mutation of the CDR H3
- koff (GST-human NOGO-A56 [1]): 0.000614 s⁻¹

Binder: Biotin-SGSGKHEPENPPPYEEAMSV [peptide 17]
- binding result (H28L16): no binding (tested: about 33 mcg/ml)

Binder: Biotin-SGSGYESIKHEPENPPPYEE [peptide 16]
- binding result (H28L16): no binding (tested: about 33 mcg/ml)

B2: H1L11 (antibody, human IgG1, kappa, V domains shown)
VH: QVQLVQSGAEVKKPGASVKVSCKASGYTFTSYWMHWVRQAPGQGLEWMGNINPSNGGTNYNEKFKSRVTMTRDTSTSTVYMELSSLRSEDTAVYYCELGQGYWGQGTLVTVSS
VL: DIVITQSPLSLPVTLGQPASISCRSSKSLLYKDGKTYLNWFQQRPGQSPQLLIYLMSTRASGVPDRFSGGGSGTDFTLKISRVEAEDVGVYYCQQLVEYPLTFGQGTKLEIKR
notes: CDR H3 GQGY; also called humanised 2A10 variant H1L11 of WO05/061544
- EC50 (read off the curve) (GST-human NOGO-A56 [2]): ~0.2 µg/mL

B3: H100L100 (antibody, V domains shown)
VH: QVQLVQSGAEVKKPGASVKVSCKASGYTFTSYWMHWVRQAPGQGLEWIGNINPSNGGTNYNEKFKSRATMTRDTSTSTAYMELSSLRSEDTAVYYCELGQSYWGQGTLVTVSS
VL: DIVMTQSPLSLPVTLGQPASISCRSSKSLLYKDGKTYLNWFRQRPGQSPQLLIYLMSTRASGVPDRFSGGGSGTDFTLKISRVEAEDVGVYYCQQLVEYPLTFGQGTKLEIK
notes: Full length versions of the heavy and light chains were expressed in CHO cells; H100 is H6 VH with G101S (Kabat), L100 is L13 VL with Q37R (Kabat); also called G101S/Q37R variant
- Kd (GST-human NOGO-A56 [3]): 0.396 nM
- koff (GST-human NOGO-A56 [3]): 0.00507 s⁻¹
- kon (GST-human NOGO-A56 [3]): 1.28e+07 M⁻¹ s⁻¹

B4: H27L13 (antibody, human IgG1, kappa, V domains shown)
VH: QVQLVQSGAEVKKPGASVKVSCKASGYTFTSYWMHWVKQRPGQGLEWIGNINPSNGGTNYNEKFKSKATLTVDKSTSTAYMELSSLRSEDTAVYYCELMQGYWGQGTLVTVSS
VL: DIVMTQSPLSLPVTLGQPASISCRSSKSLLYKDGKTYLNWFQQRPGQSPQLLIYLMSTRASGVPDRFSGGGSGTDFTLKISRVEAEDVGVYYCQQLVEYPLTFGQGTKLEIKR
notes: IgG1 (L235A, G237A) / kappa; CAMPATH-1H signal (1-19) left out
- EC50 (read off the curve) (GST-human NOGO-A56 [2]): ~0.08 µg/mL
- Kd (GST-human NOGO-A56 [4]): 0.606 nM
- koff (GST-human NOGO-A56 [4]): 0.00213 s⁻¹
- kon (GST-human NOGO-A56 [4]): 3.5e+06 M⁻¹ s⁻¹
- Kd (GST-human NOGO-A56 [5]): 0.291 nM
- koff (GST-human NOGO-A56 [5]): 0.0018 s⁻¹
- kon (GST-human NOGO-A56 [5]): 6.2e+06 M⁻¹ s⁻¹
- Kd (GST-human NOGO-A56 [6]): 0.641 nM
- koff (GST-human NOGO-A56 [6]): 0.00422 s⁻¹
- kon (GST-human NOGO-A56 [6]): 6.58e+06 M⁻¹ s⁻¹
- Kd (GST-human NOGO-A56 [7]): 0.28 nM
- koff (GST-human NOGO-A56 [7]): 0.00183 s⁻¹
- kon (GST-human NOGO-A56 [7]): 6.58e+06 M⁻¹ s⁻¹

B5: H6L13 variant with VH CDR3 RQGY (antibody, human IgG1, kappa, V domains shown)
VH: QVQLVQSGAEVKKPGASVKVSCKASGYTFTSYWMHWVRQAPGQGLEWIGNINPSNGGTNYNEKFKSRATMTRDTSTSTAYMELSSLRSEDTAVYYCELRQGYWGQGTLVTVSS
VL: DIVMTQSPLSLPVTLGQPASISCRSSKSLLYKDGKTYLNWFQQRPGQSPQLLIYLMSTRASGVPDRFSGGGSGTDFTLKISRVEAEDVGVYYCQQLVEYPLTFGQGTKLEIKR
notes: Single point variant of H6FL with L13FL
- koff (GST-human NOGO-A56 [8]): 0.0175 s⁻¹

B6: H16L16 (antibody, human IgG1, kappa, V domains shown)
VH: QVQLVQSGAEVKKPGASVKVSCKASGYTFTSYWMHWVKQRPGQGLEWIGNINPSNGGTNYNEKFKSKATLTVDKSTSTAYMELSSLRSEDTAVYYCELGQGYWGQGTLVTVSS
VL: DIVMTQSPLSNPVTLGQPVSISCRSSKSLLYKDGKTYLNWFLQRPGQSPQLLIYLMSTRASGVPDRFSGGGSGTDFTLKISRVEAEDVGVYYCQQLVEYPLTFGQGTKLEIKR
notes: as for B4
- EC50 (read off the curve) (GST-human NOGO-A56 [2]): ~0.08 µg/mL
- Kd (GST-human NOGO-A56 [4]): 1.08 nM
- koff (GST-human NOGO-A56 [4]): 0.00372 s⁻¹
- kon (GST-human NOGO-A56 [4]): 3.43e+06 M⁻¹ s⁻¹
- Kd (GST-human NOGO-A56 [6]): 1.16 nM
- koff (GST-human NOGO-A56 [6]): 0.00616 s⁻¹
- kon (GST-human NOGO-A56 [6]): 5.31e+06 M⁻¹ s⁻¹

B7: H6L13 variant with VH CDR3 IQGY (antibody, human IgG1, kappa, V domains shown)
VH: QVQLVQSGAEVKKPGASVKVSCKASGYTFTSYWMHWVRQAPGQGLEWIGNINPSNGGTNYNEKFKSRATMTRDTSTSTAYMELSSLRSEDTAVYYCELIQGYWGQGTLVTVSS
VL: DIVMTQSPLSLPVTLGQPASISCRSSKSLLYKDGKTYLNWFQQRPGQSPQLLIYLMSTRASGVPDRFSGGGSGTDFTLKISRVEAEDVGVYYCQQLVEYPLTFGQGTKLEIKR
notes: as for B5
- koff (GST-human NOGO-A56 [8]): 0.0172 s⁻¹

B8: H100L101 (antibody, V domains shown)
VH: QVQLVQSGAEVKKPGASVKVSCKASGYTFTSYWMHWVRQAPGQGLEWIGNINPSNGGTNYNEKFKSRATMTRDTSTSTAYMELSSLRSEDTAVYYCELGQSYWGQGTLVTVSS
VL: DIVMTQSPLSLPVTLGQPASISCRSSKSLLYKDGKTYLNWFQQRPGQSPRLLIYLMSTRASGVPDRFSGGGSGTDFTLKISRVEAEDVGVYYCQQLVEYPLTFGQGTKLEIK
notes: Full length version expressed in CHO cells; L101 is L13 VL with Q45R (Kabat)
- Kd (GST-human NOGO-A56 [3]): 0.329 nM
- koff (GST-human NOGO-A56 [3]): 0.00429 s⁻¹
- kon (GST-human NOGO-A56 [3]): 1.3e+07 M⁻¹ s⁻¹

B9: H6L13 variant with VH CDR3 GQYY (antibody, human IgG1, kappa, V domains shown)
VH: QVQLVQSGAEVKKPGASVKVSCKASGYTFTSYWMHWVRQAPGQGLEWIGNINPSNGGTNYNEKFKSRATMTRDTSTSTAYMELSSLRSEDTAVYYCELGQYYWGQGTLVTVSS
VL: DIVMTQSPLSLPVTLGQPASISCRSSKSLLYKDGKTYLNWFQQRPGQSPQLLIYLMSTRASGVPDRFSGGGSGTDFTLKISRVEAEDVGVYYCQQLVEYPLTFGQGTKLEIKR
notes: as for B5
- koff (GST-human NOGO-A56 [8]): 0.0328 s⁻¹

B10: H6L13 variant with VH CDR3 GQWY (antibody, human IgG1, kappa, V domains shown)
VH: QVQLVQSGAEVKKPGASVKVSCKASGYTFTSYWMHWVRQAPGQGLEWIGNINPSNGGTNYNEKFKSRATMTRDTSTSTAYMELSSLRSEDTAVYYCELGQWYWGQGTLVTVSS
VL: DIVMTQSPLSLPVTLGQPASISCRSSKSLLYKDGKTYLNWFQQRPGQSPQLLIYLMSTRASGVPDRFSGGGSGTDFTLKISRVEAEDVGVYYCQQLVEYPLTFGQGTKLEIKR
notes: as for B5
- koff (GST-human NOGO-A56 [8]): 0.0177 s⁻¹

B11: H6L13 variant with VH CDR3 GVGY (antibody, human IgG1, kappa, V domains shown)
VH: QVQLVQSGAEVKKPGASVKVSCKASGYTFTSYWMHWVRQAPGQGLEWIGNINPSNGGTNYNEKFKSRATMTRDTSTSTAYMELSSLRSEDTAVYYCELGVGYWGQGTLVTVSS
VL: DIVMTQSPLSLPVTLGQPASISCRSSKSLLYKDGKTYLNWFQQRPGQSPQLLIYLMSTRASGVPDRFSGGGSGTDFTLKISRVEAEDVGVYYCQQLVEYPLTFGQGTKLEIKR
notes: as for B5
- koff (GST-human NOGO-A56 [8]): 0.0178 s⁻¹

B12: H6L13 variant with VH CDR3 GSGY (antibody, human IgG1, kappa, V domains shown)
VH: QVQLVQSGAEVKKPGASVKVSCKASGYTFTSYWMHWVRQAPGQGLEWIGNINPSNGGTNYNEKFKSRATMTRDTSTSTAYMELSSLRSEDTAVYYCELGSGYWGQGTLVTVSS
VL: DIVMTQSPLSLPVTLGQPASISCRSSKSLLYKDGKTYLNWFQQRPGQSPQLLIYLMSTRASGVPDRFSGGGSGTDFTLKISRVEAEDVGVYYCQQLVEYPLTFGQGTKLEIKR
notes: as for B5
- koff (GST-human NOGO-A56 [8]): 0.0207 s⁻¹

Binder: Biotin-SGSGVLPDIVMEAPLNSAVP [peptide 7 (biotin-SGSG-VLPDIVMEAPLNSAVP)]
- IC50 (read off the curve) (H28L16): ~0.9 µg/mL

Binder: Biotin-SGSGTPSPVLPDIVMEAPLN [peptide 6 (biotin-SGSG-TPSPVLPDIVMEAPLN)]
- binding result (H28L16): binds
